Laboratory results reported in patent US20250333496A1 (Novo Nordisk, published 2025).
Where two headings read alike, the source gives them in different places. Values belong to the binder of their own block, whether it stands above or below them.

Experiments:
[1] = molecular target: T1, human IL-6 (mature hIL-6) (human, UniProt P05231 30-212); experiment: cell-based or functional assay
[2] = molecular target: T1, human IL-6 (mature hIL-6); experiment: cell-based or functional assay; remark: listed apart in the source
[3] = molecular target: T1, human IL-6 (mature hIL-6); experiment: cell-based or functional assay; remark: listed apart in the source
[4] = molecular target: T1, human IL-6 (mature hIL-6); experiment: cell-based or functional assay; remark: listed apart in the source
[5] = molecular target: T2, recombinant human HPC4-tagged IL-6 (human, UniProt P05231 30-212); experiment: SPR, HPC4-IL-6 captured on anti-HPC4 antibody, VHH injected, 25 C, 1:1 model
T2 construct: captured on an anti-HPC4 antibody in SPR; also called HPC4-human IL6
Method: Binding of purified anti-IL-6 VHHs to recombinant human HPC4-tagged IL-6 (SEQ ID NO: 98) was probed by Surface Plasmon Resonance (SPR).
IL-6 was captured at a flow rate of 10 μL/min for 30 seconds.
Subsequently, concentration series of VHH polypeptides according to Table 33 were injected at a flow rate of 50 μL/min for 200 seconds to allow for binding to […] followed by 600 seconds running buffer (10 mM HEPES, 150 mM NaCl, 5 mM CaCl₂, 0.05% (v/v) Surfactant P20, 1 mg/mL bovine serum albumin, pH 7.4) injection allowing dissociation from IL-6. The running buffer was also used for dilution of anti-IL-6 VHHs and IL-6. Regeneration of the chip was achieved using a regeneration buffer consisting of 50 mM EDTA in running buffer without CaCl₂, 30 seconds contact time, and a 30 μL/min flow rate applied twice to the surface. The binding data were collected at 25° C. at either a Biacore instrument (Cytiva AB, Uppsala) or a Bruker SPR32 (Bruker Daltonics). Data were analysed according to a 1:1 model using either BiaEvaluation or Biacore Insight Evaluation (Cytiva AB, Uppsala) or Bruker Analyser (Bruker Daltonics).

[6] = molecular target: T1, human IL-6 (mature hIL-6); experiment: cell-based or functional assay; remark: listed apart in the source
[7] = molecular target: T1, human IL-6 (mature hIL-6); experiment: SPR (format not stated)
[8] = molecular target: T3, IL-6R on HEK293-STAT3-Luc reporter cells (UniProt P08887 20-468, limits assumed); experiment: cell-based or functional assay
T3 sequence (looked up): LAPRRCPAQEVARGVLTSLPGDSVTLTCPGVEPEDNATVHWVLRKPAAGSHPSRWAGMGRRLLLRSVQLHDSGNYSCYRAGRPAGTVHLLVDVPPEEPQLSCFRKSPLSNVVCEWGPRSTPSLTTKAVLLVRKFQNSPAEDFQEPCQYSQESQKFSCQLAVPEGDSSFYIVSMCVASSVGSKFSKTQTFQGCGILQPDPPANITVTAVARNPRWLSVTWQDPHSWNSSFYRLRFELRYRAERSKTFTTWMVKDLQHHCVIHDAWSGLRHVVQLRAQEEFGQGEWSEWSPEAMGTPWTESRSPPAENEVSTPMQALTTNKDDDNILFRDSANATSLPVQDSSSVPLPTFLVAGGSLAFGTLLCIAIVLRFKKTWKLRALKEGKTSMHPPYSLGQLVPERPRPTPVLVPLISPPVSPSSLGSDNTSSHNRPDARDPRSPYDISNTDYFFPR

[9] = molecular target: T3, IL-6R on HEK293-STAT3-Luc reporter cells; experiment: cell-based or functional assay; remark: listed apart in the source

T1 sequence (P05231 30-212): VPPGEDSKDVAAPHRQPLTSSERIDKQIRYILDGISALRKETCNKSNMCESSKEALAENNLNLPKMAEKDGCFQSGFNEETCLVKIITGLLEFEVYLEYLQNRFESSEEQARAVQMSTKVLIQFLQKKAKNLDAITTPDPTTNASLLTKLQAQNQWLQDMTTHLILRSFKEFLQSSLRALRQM
T2 sequence (P05231 other isoform, or with tags, fused parts or gaps limits assumed): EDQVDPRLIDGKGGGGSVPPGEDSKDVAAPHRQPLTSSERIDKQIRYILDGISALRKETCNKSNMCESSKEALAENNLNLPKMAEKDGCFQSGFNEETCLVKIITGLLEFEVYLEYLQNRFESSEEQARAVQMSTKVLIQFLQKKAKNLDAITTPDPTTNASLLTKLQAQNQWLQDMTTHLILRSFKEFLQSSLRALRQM

IC50 (nM), STAT3-luc reporter gene assay [1]: 0.034 nM
Relative IC50 to Reference Polypeptide_29 [1]: 1 fold
IC50 (nM), STAT3-luc reporter gene assay [2]: 0.044 nM
Relative IC50 to Polypeptide_29 [2]: 1 fold
Relative IC50 to Reference Anti-IL6 Fab [2]: 1.1 fold
IC50 (nM) mean, STAT3-luc reporter gene assay [3]: 0.039 nM
Relative IC50 to Polypeptide_29 [3]: 1 fold
IC 50 (nM), reporter gene assay, 0% HSA [4]: 0.035 nM
Kd [5]: 0.0039 nM
koff [5]: 8.69e-05 s⁻¹
kon [5]: 2.23e+07 M⁻¹ s⁻¹
B1: Polypeptide_29 (VHH)
VHH: EVQLVESGGGLVQPGGSLKLSCTTSGRRFSEYAVGWFRQAPGKEREFVADIGEQAENTWYAESVLGRFTISRDDAKNTVYLEMDGLKPEDTAVYYCAADKYGVGGNAQGYYDSWGQGTQVTVSS
notes: VHH_1.6 with C-terminal His tag extension E1; also called [VHH_1.6]-E1

IC50 (nM) mean, STAT3-luc reporter gene assay [3]: 0.043 nM
Relative IC50 to Polypeptide_29 [3]: 1.2 fold
B2: Compound 18 (VHH)
VHH: B1 VHH
modifications: Chem. 26 (C18 fatty acid substituent) on Cys in position 4 and on Cys in position 6 of the extension (SEQ ID NO: 162)

IC50 (nM) mean, STAT3-luc reporter gene assay [3]: 0.054 nM
Relative IC50 to Polypeptide_29 [3]: 1.6 fold
B3: Compound 16 (VHH)
VHH: B1 VHH
modifications: Chem. 27 (C20 fatty acid substituent) on Cys in position 4 of the extension (SEQ ID NO: 161)

IC50 (nM) mean, STAT3-luc reporter gene assay [3]: 0.04 nM
Relative IC50 to Polypeptide_29 [3]: 1 fold
B4: Compound 17 (VHH)
VHH: B1 VHH
modifications: Chem. 24 (C16 fatty acid substituent) on Cys in position 4 and on Cys in position 6 of the extension (SEQ ID NO: 162)

IC50 (nM) mean, STAT3-luc reporter gene assay [3]: 0.042 nM
Relative IC50 to Polypeptide_29 [3]: 1.1 fold
B5: Compound 19 (VHH)
VHH: B1 VHH
modifications: Chem. 27 (C20 fatty acid substituent) on Cys in position 4 and on Cys in position 6 of the extension (SEQ ID NO: 162)

IC50 (nM) mean, STAT3-luc reporter gene assay [3]: 0.046 nM
Relative IC50 to Polypeptide_29 [3]: 1.3 fold
B6: Compound 15 (VHH)
VHH: B1 VHH
modifications: Chem. 26 (C18 fatty acid substituent) on Cys in position 4 of the extension (SEQ ID NO: 161)

IC50 (nM) mean, STAT3-luc reporter gene assay [3]: 0.041 nM
Relative IC50 to Polypeptide_29 [3]: 1.1 fold
B7: Compound 14 (VHH)
VHH: B1 VHH
modifications: Chem. 24 (C16 fatty acid substituent) on Cys in position 4 of the extension (SEQ ID NO: 161)

Reporter gene-assay [pM] [6]: 43.6 pM
IC 50 (nM), reporter gene assay, 0% HSA [4]: 0.066 nM
IC 50 (nM), reporter gene assay, 1% HSA [4]: 0.046 nM
Kd [7]: ~0.0136 nM
Kd [5]: 0.0136 nM
kon [5]: 2.88e+07 M⁻¹ s⁻¹
B8: Polypeptide_34 (VHH)
VHH: EVQLVESGGGLVQAGGSLRLSCTASGGTFSEYAMAWFRQAPGKEREFVTDIGESGGTWYADSVKGRFTISRDNAKNTVYLQMNSLRPEDTAVYYCAADSYGVGGGAERYYDSWGQGTQVTVSS
notes: VHH_1.8 with C-terminal His tag extension E1; also called [VHH_1.8]-E1

IC50 (nM), STAT3-luc reporter gene assay [8]: 0.114 nM
Relative IC50 to Polypeptide_29 [8]: 2.6 fold
Relative IC50 to Reference Anti-IL6 Fab [8]: 2.9 fold
IC 50 (nM), reporter gene assay, 0% HSA [9]: 0.114 nM
B9: Vobarilizumab anti-IL-6R domain SIA comparator (VHH)
VHH: EVQLVESGGGLVQPGGSLRLSCAASGSVFKINVMAWYRQAPGKGRELVAGIISGGSTSYADSVKGRFTISRDNAKNTLYLQMNSLRPEDTAVYYCAFITTESDYDLGRRYWGQGTLVTVSS

IC50 (nM), STAT3-luc reporter gene assay [2]: 0.115 nM
Relative IC50 to Polypeptide_29 [2]: 2.6 fold
Relative IC50 to Reference Anti-IL6 Fab [2]: 2.9 fold
B10: anti-IL-6 VHH building block 7G05 SIA comparator (VHH)
VHH: QVKLEESGGGLVQPGGSLRLSCAASGSISRFNIMGWYRQAPGKQRELVADITNGGTTMYADSVKGRFTISRDNTKNTVYLQMNSLKPEDTAVYYCHTYYPTTGFDDWGQGAQVTVSS

Reporter gene-assay [pM] [6]: 40.6 pM
IC50 (nM), STAT3-luc reporter gene assay [1]: 0.185 nM
Relative IC50 to Reference Polypeptide_29 [1]: 5.4 fold
IC 50 (nM), reporter gene assay, 0% HSA [4]: 0.117 nM
IC 50 (nM), reporter gene assay, 1% HSA [4]: 0.064 nM
Kd [7]: 0.001 nM
B11: Polypeptide_19 (VHH)
VHH: QLQLVESGGGWVQPGGSLKLSCTTSGRTFSSYAVGWFRQAPGKEREFVADIGENADNTWYAHSVKGRFTISRDNAKNTVYLQMNSLKPEDTAVYYCAADSYGVGGGAQGYYDSWGQGTQVTVSS
notes: VHH_1.11 with C-terminal His tag extension E1; also called [VHH_1.11]-E1

IC50 (nM), STAT3-luc reporter gene assay [2]: 0.039 nM
Relative IC50 to Polypeptide_29 [2]: 0.9 fold
Relative IC50 to Reference Anti-IL6 Fab [2]: 1 fold
IC 50 (nM), reporter gene assay, 0% HSA [4]: 0.026 nM
IC 50 (nM), reporter gene assay, 1% HSA [4]: 0.017 nM
B12: Reference Anti-IL6 Fab (Fab, V domains shown)
VH: EVQLVESGGGLVQPGGSLRLSCAASGFTISSNYMIWVRQAPGKGLEWVSDLYYYAGDTYYADSVKGRFTMSRDISKNTVYLQMNSLRAEDTAVYYCARWADDHPPWIDLWGRGTLVTVSS
VL: DIQMTQSPSTLSASVGDRVTITCRASQGISSWLAWYQQKPGKAPKVLIYKASTLESGVPSRFSGSGSGTEFTLTISSLQPDDFATYYCQQSWLGGSFGQGTKLEIKR
